Test results published in publication PMC5051949, “Mechanism of Rifampicin Inactivation in Nocardia farcinica” (PLoS ONE, 2016).

Tests used:
[1] = system: CO[C@H]1/C=C/O[C@@]2(C)Oc3c(C)c(O)c4c(O)c(c(/C=N/N5CCN(C)CC5)c(O)c4c3C2=O)NC(=O)/C(C)=C\C=C\[C@H](C)[C@H](O)[C@@H](C)[C@@H](O)[C@@H](C)[C@H](OC(C)=O)[C@@H]1C; experiment: steady-state oxygen consumption (oxygraph); format: biochemical, Nocardia farcinica; settings: 1 mM NADPH, 100 mM sodium phosphate pH 7.5, 25°C
Description: (§1) steady-state oxygen consumption (oxygraph) on RifMO (rifampicin monooxygenase)

[2] = system: NC(=O)C1=CN([C@@H]2O[C@H](COP(=O)(O)OP(=O)(O)OC[C@H]3O[C@@H](n4cnc5c(N)ncnc54)[C@H](O)[C@@H]3O)[C@@H](O)[C@H]2O)C=CC1; experiment: steady-state oxygen consumption (oxygraph); format: biochemical, Nocardia farcinica; settings: 30 μM Rif, 100 mM sodium phosphate pH 7.5, 25°C, varied: cofactor
Description: as §1

[3] = system: NC(=O)C1=CN([C@@H]2O[C@H](COP(=O)(O)OP(=O)(O)OC[C@H]3O[C@@H](n4cnc5c(N)ncnc54)[C@H](OP(=O)(O)O)[C@@H]3O)[C@@H](O)[C@H]2O)C=CC1; experiment: steady-state oxygen consumption (oxygraph); format: biochemical, Nocardia farcinica; settings: 30 μM Rif, 100 mM sodium phosphate pH 7.5, 25°C, varied: cofactor
Description: as §1

[4] = molecular target: T1, RifMO (rifampicin monooxygenase) (Nocardia farcinica, UniProt Q5YTV5); experiment: flavin absorbance change at […] nm (spectral titration); format: binding
T1 construct: gene rox; full-length, codon optimized, pET15b N-terminal 6xHis tag cleaved with thrombin, expressed in E. coli

[5] = molecular target: T1, RifMO (rifampicin monooxygenase); experiment: steady-state oxygen consumption (oxygraph); format: biochemical; settings: substrate inhibition by NADPH; 30 μM Rif, 100 mM sodium phosphate pH 7.5, 25°C
Description: as §1

T1 sequence (Q5YTV5 whole entry): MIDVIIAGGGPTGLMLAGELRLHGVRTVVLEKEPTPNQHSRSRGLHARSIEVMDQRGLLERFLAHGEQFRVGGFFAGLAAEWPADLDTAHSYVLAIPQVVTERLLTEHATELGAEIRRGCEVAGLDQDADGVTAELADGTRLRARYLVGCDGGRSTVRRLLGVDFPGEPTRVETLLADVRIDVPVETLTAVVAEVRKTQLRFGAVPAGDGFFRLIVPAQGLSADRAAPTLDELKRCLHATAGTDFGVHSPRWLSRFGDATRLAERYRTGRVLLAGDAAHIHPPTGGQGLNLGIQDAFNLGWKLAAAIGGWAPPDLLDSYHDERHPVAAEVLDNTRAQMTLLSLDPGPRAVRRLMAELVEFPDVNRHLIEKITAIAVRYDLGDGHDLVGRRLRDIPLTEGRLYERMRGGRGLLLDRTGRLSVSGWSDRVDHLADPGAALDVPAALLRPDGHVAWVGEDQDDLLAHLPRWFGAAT

Compound: RifMO (rifampicin monooxygenase) (Nocardia farcinica IFM 10152)
- Km [1]: 5.8 ± 0.88 µM
- kcat [1]: 4 ± 0.16 s⁻¹
- kcat/Km [1]: 700000 ± 81300 M⁻¹ s⁻¹
- Km [2]: 266 ± 25 µM
- kcat [2]: 3.3 ± 0.06 s⁻¹
- kcat/Km [2]: 12600 ± 1000 M⁻¹ s⁻¹
- Km [3]: 90 ± 10 µM
- kcat [3]: 4 ± 0.1 s⁻¹
- kcat/Km [3]: 43100 ± 3700 M⁻¹ s⁻¹

Compound: CO[C@H]1/C=C/O[C@@]2(C)Oc3c(C)c(O)c4c(O)c(c(/C=N/N5CCN(C)CC5)c(O)c4c3C2=O)NC(=O)/C(C)=C\C=C\[C@H](C)[C@H](O)[C@@H](C)[C@@H](O)[C@@H](C)[C@H](OC(C)=O)[C@@H]1C [Rif, rifampicin]
- Kd [4]: 9.5 ± 2.5 µM

Compound: NC(=O)C1=CN([C@@H]2O[C@H](COP(=O)(O)OP(=O)(O)OC[C@H]3O[C@@H](n4cnc5c(N)ncnc54)[C@H](OP(=O)(O)O)[C@@H]3O)[C@@H](O)[C@H]2O)C=CC1 [NADPH]
- KI [5]: 33000 ± 4000 µM
